The text below walks through data of patent EP0363874A1, “Enzymes bound to a polymer matrix in water-soluble form” (Etablissement TEXCONTOR, priority 1988, dated 1990).

The nature of series [1]: Stability in aqueous solution (retention of enzyme activity). In kind it is physicochemical.
Series [2] is described as follows: Stability in solid state (retention of enzyme activity). The class given is physicochemical.
The nature of series [3]: Water solubility of the supported enzyme. In kind it is physicochemical. Conditions: for WATER SOLUBILITY: papain grafted onto DAS preparations of variable aldehyde titre. Here is the method: (§1) The proteolytic activity of the product of Example 1 was determined by the American Pharmacopeia method (USP XXI). Various DAS preparations of variable aldehyde titre were used, obtained by varying the reaction times, in order to establish a comparison between the aldehyde titre, the solubility of the enzymatic preparation and the activity of this latter.

Series [4] can be described thus: Proteolytic activity of papain grafted onto DAS, American Pharmacopeia method (USP XXI). In kind it is biochemical. Conditions: papain grafted onto DAS preparations of variable aldehyde titre. Here is the method: as §1
The nature of series [5]: Release of enzyme from the polymer matrix. In kind it is physicochemical. The conditions noted are these: aqueous solution.

B1: DAS.2: papain grafted onto starch polyaldehyde (DAS) of aldehyde titre 5.8 x 10⁻³ meq CHO/mg and reduced with sodium borohydride (conjugate, UniProt P00784 134-345, looked up)
Papain: IPEYVDWRQKGAVTPVKNQGSCGSCWAFSAVVTIEGIIKIRTGNLNEYSEQELLDCDRRSYGCNGGYPWSALQLVAQYGIHYRNTYPYEGVQRYCRSREKGPYAAKTDGVRQVQPYNEGALLYSIANQPVSVVLEAAGKDFQLYRGGIFVGPCGNKVDHAVAAVGYGPNYILIKNSWGTGWGENGYIRIKRGTGNSYGVCGLYTSSFYPVKN
modifications: grafted onto starch polyaldehyde, borohydride-reduced
notes: papain grafted onto starch polyaldehyde (DAS) of aldehyde titre 5.8 x 10⁻³ meq CHO/mg and reduced with sodium borohydride
For B1, the “time for which the activity is maintained” value in series [1] is given as “at least six months”; in series [2], “at least two years”. The water-solubility result in series [3] (lyophilized product) is reported as “good water-solubility”. For the same molecule, in series [3], the “WATER SOLUBILITY” value is “YES”. Besides, the “µg OF ACTIVE PAPAIN per 100 mg POLYMER” value in series [4] is listed as 900 µg per 100 mg POLYMER. Moreover, the “time without release of enzyme” value in series [5] is recorded as “at least six months”.

B2: DAS.3: papain grafted onto starch polyaldehyde (DAS) of aldehyde titre 8 x 10⁻³ meq CHO/mg and reduced with sodium borohydride (conjugate, UniProt P00784 134-345, looked up)
Papain: IPEYVDWRQKGAVTPVKNQGSCGSCWAFSAVVTIEGIIKIRTGNLNEYSEQELLDCDRRSYGCNGGYPWSALQLVAQYGIHYRNTYPYEGVQRYCRSREKGPYAAKTDGVRQVQPYNEGALLYSIANQPVSVVLEAAGKDFQLYRGGIFVGPCGNKVDHAVAAVGYGPNYILIKNSWGTGWGENGYIRIKRGTGNSYGVCGLYTSSFYPVKN
modifications: grafted onto starch polyaldehyde, borohydride-reduced
notes: papain grafted onto starch polyaldehyde (DAS) of aldehyde titre 8 x 10⁻³ meq CHO/mg and reduced with sodium borohydride
With B2, the “WATER SOLUBILITY” value in series [3] is “YES”. Further, the “µg OF ACTIVE PAPAIN per 100 mg POLYMER” value in series [4] stood at 200 µg per 100 mg POLYMER.

B3: DAS.4: papain grafted onto starch polyaldehyde (DAS) of aldehyde titre 4.68 x 10⁻³ meq CHO/mg and reduced with sodium borohydride (conjugate, UniProt P00784 134-345, looked up)
Papain: IPEYVDWRQKGAVTPVKNQGSCGSCWAFSAVVTIEGIIKIRTGNLNEYSEQELLDCDRRSYGCNGGYPWSALQLVAQYGIHYRNTYPYEGVQRYCRSREKGPYAAKTDGVRQVQPYNEGALLYSIANQPVSVVLEAAGKDFQLYRGGIFVGPCGNKVDHAVAAVGYGPNYILIKNSWGTGWGENGYIRIKRGTGNSYGVCGLYTSSFYPVKN
modifications: grafted onto starch polyaldehyde, borohydride-reduced
notes: papain grafted onto starch polyaldehyde (DAS) of aldehyde titre 4.68 x 10⁻³ meq CHO/mg and reduced with sodium borohydride
In the case of B3, the “WATER SOLUBILITY” value in series [3] is “YES”. In series [4], the “µg OF ACTIVE PAPAIN per 100 mg POLYMER” value was 500 µg per 100 mg POLYMER.

B4: DAS.1: papain grafted onto starch polyaldehyde (DAS) of aldehyde titre 3.16 x 10⁻³ meq CHO/mg and reduced with sodium borohydride (conjugate, UniProt P00784 134-345, looked up)
Papain: IPEYVDWRQKGAVTPVKNQGSCGSCWAFSAVVTIEGIIKIRTGNLNEYSEQELLDCDRRSYGCNGGYPWSALQLVAQYGIHYRNTYPYEGVQRYCRSREKGPYAAKTDGVRQVQPYNEGALLYSIANQPVSVVLEAAGKDFQLYRGGIFVGPCGNKVDHAVAAVGYGPNYILIKNSWGTGWGENGYIRIKRGTGNSYGVCGLYTSSFYPVKN
modifications: grafted onto starch polyaldehyde, borohydride-reduced
notes: papain grafted onto starch polyaldehyde (DAS) of aldehyde titre 3.16 x 10⁻³ meq CHO/mg and reduced with sodium borohydride
On to B4, for which, in series [3], the “WATER SOLUBILITY” value is “MICELLE”. For the same molecule, the “µg OF ACTIVE PAPAIN per 100 mg POLYMER” value in series [4] is on record as 800 µg per 100 mg POLYMER.
